What was measured:
[1] = test system: T1, CCCCCC(=O)SCCNC(=O)CCNC(=O)[C@H](O)C(C)(C)COP(=O)(O)OP(=O)(O)OC[C@H]1O[C@@H](n2cnc3c(N)ncnc32)[C@H](O)[C@@H]1OP(=O)(O)O; test: purified protein; format: biochemical, Caproicibacterium lactatifermentans; details: 200 mM sodium acetate, 100 mM potassium phosphate pH 7, 25 °C
T1 construct: full-length, N-terminal His tag, pET28a, E. coli BL21 (DE3), Ni-NTA; gene 1344 bp, 49 kDa; predicted active site GGQLDFVLGAYL 342-353; homotetramer in model only

[2] = test system: T2, CCCC(=O)SCCNC(=O)CCNC(=O)[C@H](O)C(C)(C)COP(=O)(O)OP(=O)(O)OC[C@H]1O[C@@H](n2cnc3c(N)ncnc32)[C@H](O)[C@@H]1OP(=O)(O)O; test: purified protein; format: biochemical, Caproicibacterium lactatifermentans; details: 200 mM sodium acetate, 100 mM potassium phosphate pH 7, 25 °C
T2 construct: full-length, N-terminal His tag, pET28a, E. coli BL21 (DE3), Ni-NTA; gene 1344 bp, 49 kDa; predicted active site GGQLDFVLGAYL 342-353; homotetramer in model only

Chain of CPB6-CoAT (CCoAT) (Caproicibacterium lactatifermentans; D346H) (chain, as listed by the source D346H): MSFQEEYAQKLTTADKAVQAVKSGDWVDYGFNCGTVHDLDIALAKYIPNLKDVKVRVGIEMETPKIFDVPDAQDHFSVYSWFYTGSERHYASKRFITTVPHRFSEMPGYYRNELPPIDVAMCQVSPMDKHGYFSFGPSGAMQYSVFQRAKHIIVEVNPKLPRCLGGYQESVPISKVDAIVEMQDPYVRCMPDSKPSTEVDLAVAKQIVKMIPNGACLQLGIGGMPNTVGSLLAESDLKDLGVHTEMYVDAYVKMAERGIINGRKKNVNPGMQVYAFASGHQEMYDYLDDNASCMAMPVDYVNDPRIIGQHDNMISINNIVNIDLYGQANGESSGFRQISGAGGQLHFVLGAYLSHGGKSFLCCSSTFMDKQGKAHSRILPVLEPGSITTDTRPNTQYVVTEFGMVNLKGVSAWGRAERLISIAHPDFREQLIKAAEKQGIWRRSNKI
Chain of CPB6-CoAT (CCoAT) (Caproicibacterium lactatifermentans; A351P) (chain, as listed by the source A351P): as the sequence (chain, as listed by the source D346H) above, with H346D, A351P counted along it
Chain of CPB6-CoAT (CCoAT) (Caproicibacterium lactatifermentans) (chain, as listed by the source): as the sequence (chain, as listed by the source D346H) above, with H346D counted along it

## CPB6-CoAT (CCoAT) (Caproicibacterium lactatifermentans; D346H)
[1]
  Km: 748 ± 7.9 µM
  kcat: 0.0707 ± 0.00333 s⁻¹
  kcat/Km: 94.3 ± 1.67 M⁻¹ s⁻¹
[2]
  Km: 747 ± 2.8 µM
  kcat: 0.0217 ± 0.00333 s⁻¹
  kcat/Km: 28.8 ± 1.67 M⁻¹ s⁻¹

## CPB6-CoAT (CCoAT) (Caproicibacterium lactatifermentans)
[1]
  Km: 359 ± 5.3 µM
  kcat: 0.245 ± 0.015 s⁻¹
  kcat/Km: 685 ± 3.33 M⁻¹ s⁻¹
[2]
  Km: 537 ± 10 µM
  kcat: 0.0968 ± 0.025 s⁻¹
  kcat/Km: 180 ± 3.33 M⁻¹ s⁻¹

## CPB6-CoAT (CCoAT) (Caproicibacterium lactatifermentans; A351P)
[1]
  Km: 532 ± 2.5 µM
  kcat: 0.113 ± 0.02 s⁻¹
  kcat/Km: 213 ± 8.33 M⁻¹ s⁻¹
[2]
  Km: 623 ± 4.4 µM
  kcat: 0.0498 ± 0.015 s⁻¹
  kcat/Km: 80 ± 3.33 M⁻¹ s⁻¹
